Measurements from the RNAGym collection of RNA variant scans (doi:10.7554/elife.80360).

B1: HDV Ribozyme (parent)
chain: GGCCGGCAUGGUCCCAGCCUCCUCGCUGGCGCCGGCUGGGCAACAUUCCGAGGGGACCGUCCCCUCGGUAAUGGCGAAUGGGACCCA

Variants of: B1
Test: self-cleavage, relative activity (ratio to wild type); higher = more cleavage; co-transcriptional

Variant | self-cleavage
GGCCGGCAUGGUCCCAGCCUCCUCGCUGGCGCCGGCUGGGAAACAUUCCGAGGGGACCGUACCCUCGGUAAUGGCGAAUGGGACCCA [C41A C61A] | 1.07
GGCCGGCAUGGUACCAGCCUCCUCGCUGGCGCCGGCUAGGCAACAUUCCGAGGGGACCGUCCCCUCGGUAAUGGCGAAUGGGACCCA [C13A G38A] | 0.0631
GGCCGGCAUGGUCCCAGCCUCCUCGCUCGCGCAGGCUGGGCAACAUUCCGAGGGGACCGUCCCCUCGGUAAUGGCGAAUGGGACCCA [G28C C33A] | 0.106
GGCCGGCAUGGUCCCAGCCUCCUCGCUGGCGCCGGCUGGGCAACAUUCCGAGGGGACCGUCCCCUAGGUUAUGGCGAAUGGGACCCA [C66A A70U] | 1.08
GGCCGGCAUGGUCCCAACCUCCUCGCUGGCGCCGGCUGGGCACCAUUCCGAGGGGACCGUCCCCUCGGUAAUGGCGAAUGGGACCCA [G17A A43C] | 0.0369
GGCCGGCAUGGUCCCAGCCUCCACGCUGGCUCCGGCUGGGCAACAUUCCGAGGGGACCGUCCCCUCGGUAAUGGCGAAUGGGACCCA [U23A G31U] | 0.271
GGCCGGCAUGGUCCCAGCCUCCUCGCUGGCGCCGGCUGGGCAACAUUCCGAGGGGACCGUCACCUCAGUAAUGGCGAAUGGGACCCA [C62A G67A] | 0.578
GGCCGGCAUGUUCCGAGCCUCCUCGCUGGCGCCGGCUGGGCAACAUUCCGAGGGGACCGUCCCCUCGGUAAUGGCGAAUGGGACCCA [G11U C15G] | 0.166
GGCCGGCAUGGUCCCAGCCUCCUCGCUGGCGCCGGCUGGGCAACAUUCCGAGGGGACCGUCACCUCGGUAAUGGCGAAUGGGACCCU [C62A A87U] | 0.984
GGCCGGCAUGGUCCCAGCCUCCUCGCUGGCGCCGGCUGGGCAACAUUCCGAGCGGACCGUCCCCUCGGUAAUGGCGAAUGGUACCCA [G53C G82U] | 0.358
GCCCGGCUUGGUCCCAGCCUCCUCGCUGGCGCCGGCUGGGCAACAUUCCGAGGGGACCGUCCCCUCGGUAAUGGCGAAUGGGACCCA [G2C A8U] | 0
GGCCGGCAUGGUCCCAGCCUCCGCGCUGGCGCCGGCUGGGCAACAUUCAGAGGGGACCGUCCCCUCGGUAAUGGCGAAUGGGACCCA [U23G C49A] | 0.831
GGCCGGCAUGGUCCCAGCCUCCUCGCUGGCGCCAGCUGGGCAACAUUCCGAGGCGACCGUCCCCUCGGUAAUGGCGAAUGGGACCCA [G34A G54C] | 0.151
GGCCGGCAUGGUCCCAGCCUCCUCGCUGGCGCCGGCUGGGCAACAUUCCGAGGGGACCGUCCCCUCAGUAAUGGCGAAUAGGACCCA [G67A G80A] | 0.41
GGCCGGCAUGGUCCCAGCCUCCUCGCUGGCGCCGGCUGGGCAACAUUCCGAGGGGACCGUCCCCUAGGUAAUGACGAAUGGGACCCA [C66A G74A] | 0.519
GGCCGACAUGGUCCCAGCCUUCUCGCUGGCGCCGGCUGGGCAACAUUCCGAGGGGACCGUCCCCUCGGUAAUGGCGAAUGGGACCCA [G6A C21U] | 0.0665
GGCCGGCAAGGUCCCAGCCUCCUCUCUGGCGCCGGCUGGGCAACAUUCCGAGGGGACCGUCCCCUCGGUAAUGGCGAAUGGGACCCA [U9A G25U] | 0.175
GGCCGGCAUGGUCCCAGCCUCCUCGCUGGCGCCGGCUGGGCAACAUUCCGAGGGGACCGUCCCCUCGGUGAUGGCGAAUGGCACCCA [A70G G82C] | 0.259
GGCCGGCAUGGUCCCAGCCUCCUCGCUGGCGCCGGCUGGGCAACAUUCCGAGGGGACCGUCCCCUCGGUAAUGGGGAAUGGGAACCA [C75G C84A] | 0.259
GGCCGGCAUGGUCCCAGCCUCCUCGCUGGCGCCGGCUGGGCAACAUUCCGAGGGAACCAUCCCCUCGGUAAUGGCGAAUGGGACCCA [G55A G59A] | 1.13
GGCCGGCAUCGUCCCAGCCUCCUCGCUGGCGCCGGUUGGGCAACAUUCCGAGGGGACCGUCCCCUCGGUAAUGGCGAAUGGGACCCA [G10C C36U] | 0.554
GGCCCGCAUGGUCCCAGCCUCCUCGCUGGCGCCGGCUGGGCAACAUUCCGAGGGGACCGUCCCCUCGGUAAUGGCGAACGGGACCCA [G5C U79C] | 0.141

Variant | self-cleavage
GGCCGGCAUGGUCCCAGCCUCCUCGUUGGCGCCGGCUGGGCAACAUUCCGAGGGGACCGUCCCCUCGGUAAUGGCGAUUGGGACCCA [C26U A78U] | 0.743
GGCCGGCAUGGUCCCAGCCUCCUCGCUGGCGCCUGCUGGGCAACAUUCCGAGGGGACCGUCCCCUCGGUAUUGGCGAAUGGGACCCA [G34U A71U] | 0.208
GGCCGGCAUGGUCCCAGCCUCCUCGCUGGCGCCGGCUGGGCAACAUUCCGAGCGGACCGUCCCCUCGGUAAUGGCGAUUGGGACCCA [G53C A78U] | 0.525
GGCCGGCAUGGUACCAGCCUCCUCGCUGGCGCCAGCUGGGCAACAUUCCGAGGGGACCGUCCCCUCGGUAAUGGCGAAUGGGACCCA [C13A G34A] | 0.131
GGCCUGCAUGGUCCCAGCCUCCUCGCUGGCGCCGGUUGGGCAACAUUCCGAGGGGACCGUCCCCUCGGUAAUGGCGAAUGGGACCCA [G5U C36U] | 0.104
UGCCGGCAUGGUCCCAGCCUUCUCGCUGGCGCCGGCUGGGCAACAUUCCGAGGGGACCGUCCCCUCGGUAAUGGCGAAUGGGACCCA [G1U C21U] | 0.348
GGCCGGCAUGGUCCCAGCCUCCUCGCUGGCGCCGGCUUGGCAACACUCCGAGGGGACCGUCCCCUCGGUAAUGGCGAAUGGGACCCA [G38U U46C] | 0.135
GGCCGGCAUGGUCCCAGCCUCCUCGCUGGCGCCGGCUGGGCAACUUUCCGAGGGGACCGUUCCCUCGGUAAUGGCGAAUGGGACCCA [A45U C61U] | 0.876
GGCCCGCAUGGUCCCAGCCUCCUCGCUGGCGCCUGCUGGGCAACAUUCCGAGGGGACCGUCCCCUCGGUAAUGGCGAAUGGGACCCA [G5C G34U] | 0.0426
GGCGGGCAUGCUCCCAGCCUCCUCGCUGGCGCCGGCUGGGCAACAUUCCGAGGGGACCGUCCCCUCGGUAAUGGCGAAUGGGACCCA [C4G G11C] | 0
GGCCGGCAUGGUCCCAGCCUCCUCGCUGGGGCCGGCUGGGCAACAUUCCGAGGGGACCGUCCCCUCGGUAAUGGCGAAUGUGACCCA [C30G G81U] | 0.158
GGCCGGCAUGGUCCCAUCCUCCUCGCUGUCGCCGGCUGGGCAACAUUCCGAGGGGACCGUCCCCUCGGUAAUGGCGAAUGGGACCCA [G17U G29U] | 0.0554
UGCCGGCAUGGUCCCAGCCUCCUCGCUGGCGCCGGCUGGGCAACAUUCCGAGGGGACCGUCCCCUCGGUAAUGGCGAAUGUGACCCA [G1U G81U] | 0.41
GGCCGGCAUGGUCCCAGCCUCCACGCUGGCGCCGGCUGGGCAACAUUCCGAGGGGACCGUCCCCUCGGUAAUGGCGAAUGGGAGCCA [U23A C84G] | 0.601
GGCCGGCAUGGUCCCAGCCUCCUCGCUGGCGCCGGCUGGGCCACAUUCCGAGGGGACCGUCCCCUCGGUAAUGGCGAAUGGGACCCA [A42C] | 0.333
GGCCGGCAUGGUCCCAGCCUCCUCGCUGGCGCCGACUGGGCAACAUUCCGAGGGGACCGUCCCCUCGGUCAUGGCGAAUGGGACCCA [G35A A70C] | 0.434
GGACGGCAUGGUCCCAGCCUCCUCGCUGGCGCCGGCUGGGCAACAUACCGAGGGGACCGUCCCCUCGGUAAUGGCGAAUGGGACCCA [C3A U47A] | 0.429
GGCCGGCAUGGUCCCAGCCUCCUCGCUGGCGCCGGCUGGGCAACAUUCCGGGGGGACCGUCCCCUCGGUAAUGGCGAAUGGGAGCCA [A51G C84G] | 0.332
GGCCGGCAUGGUCCCAGCCUCCUCGCUGGCGCCGGCUGGGCAACAUUCCGAGGGGACCGUCGCCUCGGUAAUGGCGAAGGGGACCCA [C62G U79G] | 1.03
GGCCGGCAUGGUCCCAGCCUCCUCGCUGGCGACAGCUGGGCAACAUUCCGAGGGGACCGUCCCCUCGGUAAUGGCGAAUGGGACCCA [C32A G34A] | 0.032
GGCCGGCAUGGGCCCAGCCUCCUCGCUGGCGCCGGCUGGGCAACAUUCCGGGGGGACCGUCCCCUCGGUAAUGGCGAAUGGGACCCA [U12G A51G] | 0.867
GGCCGGCAUGGUCCCAGCCUCCUCGCUGGCGCCGGCUGGUCAACAUUCCGGGGGGACCGUCCCCUCGGUAAUGGCGAAUGGGACCCA [G40U A51G] | 0.717

Variant | self-cleavage
GGCCGGCAUGGUCCCAGCCUACUCGCUGGCGCCGGCUGGGCAACAUUCCGAGGGGACCGUCCCCUCGGUAAUGGCGAAUAGGACCCA [C21A G80A] | 0.0289
GGCCGGCAUGGGCCCAGCCUCCUCGCUGGCGCCGGCUGGGCAACAUUCCGAGGGGACCGUCCCCUUGGUAAUGGCGAAUGGGACCCA [U12G C66U] | 0.853
GGCUGGCAUGGUCCCAGCCUCCUCGCUGGCGCCGGCUGGGCAACAUUCCCAGGGGACCGUCCCCUCGGUAAUGGCGAAUGGGACCCA [C4U G50C] | 0.917
GGCCGGCAUGGUCCCAGCCUCCUGGCUGGCGCCGGCUGGGCAACACUCCGAGGGGACCGUCCCCUCGGUAAUGGCGAAUGGGACCCA [C24G U46C] | 0.106
GGCCGGCAUGGUCCCAGCCUCCUCGCUGGCGCCGGCUGGGCAACAUUCCGAGCGGACCGUCCCCUCGGUAAUUGCGAAUGGGACCCA [G53C G73U] | 0.369
GGCCGACAUGGUCCCAGCCUCCUCGCUGGCGCCGGCUGGGCAACAUUCCGAGGGGCCCGUCCCCUCGGUAAUGGCGAAUGGGACCCA [G6A A56C] | 0.571
GGCCGGCAUGGCCCCAGCCUCCUCGCUGGCGCCGGCUAGGCAACAUUCCGAGGGGACCGUCCCCUCGGUAAUGGCGAAUGGGACCCA [U12C G38A] | 0.0875
GGCCGGCAUGGUCCCAGCCUCCUCGCUGGCGCCGGCUUGGCAACAUUCCGAGGGGACCGCCCCCUCGGUAAUGGCGAAUGGGACCCA [G38U U60C] | 0.374
GGCCGGCAUGGUCCCAGCCUCCUCGCUGACGCCGGCUGGGCAACAUUACGAGGGGACCGUCCCCUCGGUAAUGGCGAAUGGGACCCA [G29A C48A] | 0.262
GGCCGGCAUGGUCCCAGCCUCUUCGGUGGCGCCGGCUGGGCAACAUUCCGAGGGGACCGUCCCCUCGGUAAUGGCGAAUGGGACCCA [C22U C26G] | 0.492
GGCCGGCAUGGUCCCAGCCUCCUCGCUGGCGCCGGCUGGGCAAGAUUCCGAGGGGACCGUCGCCUCGGUAAUGGCGAAUGGGACCCA [C44G C62G] | 0.485
GGCCGGCAUGGACCCAGCCACCUCGCUGGCGCCGGCUGGGCAACAUUCCGAGGGGACCGUCCCCUCGGUAAUGGCGAAUGGGACCCA [U12A U20A] | 0.101
GGCCGGCAUGGGCCCAGCCUCCCCGCUGGCGCCGGCUGGGCAACAUUCCGAGGGGACCGUCCCCUCGGUAAUGGCGAAUGGGACCCA [U12G U23C] | 0.997
GGCCGGCAUGGUCCCAGCCUCCUCGCUGGCGCCGGCCGGGCGACAUUCCGAGGGGACCGUCCCCUCGGUAAUGGCGAAUGGGACCCA [U37C A42G] | 0.795
GGCCGGCAUGGUCCCAGCCUCCUCGCUGGCGCCGGCUGGGCAGCAUUCCGAGGGGACCGUCCCCUCGGUAAUGGCGAAUUGGACCCA [A43G G80U] | 0.0916
GGCCGGCAUGGUCCCAGCCUCCUCGCUGGCGCCGGCUGGGCAACAUUCCGAGGGGACCGUCCCCUCGGGAAUGGCGAAUUGGACCCA [U69G G80U] | 0.31
GGCCGGCAUGGUCUCAGCCUCCUCGCUGGCUCCGGCUGGGCAACAUUCCGAGGGGACCGUCCCCUCGGUAAUGGCGAAUGGGACCCA [C14U G31U] | 0.429
GGCCGGCAUCGUCCCAGCCUCCUCGCUGGCGCCGGCUGGGCAACAUUCCGAGGCGACCGUCCCCUCGGUAAUGGCGAAUGGGACCCA [G10C G54C] | 1.09
GGCCGGCAUGGUCCCAGCCUCCUCGCUGGCGCCGGCUGGGCAACAUUCCGAGGGGACCGUCCCCUCGGAAAUGGCGAAUGGGAUCCA [U69A C84U] | 0.639
GGCCGGCAAGGUCCCAGCCUCCUCGCUGGCGCCGGCUGGGCAACAUUACGAGGGGACCGUCCCCUCGGUAAUGGCGAAUGGGACCCA [U9A C48A] | 1.01
